{"source": "patent US20230212587A1", "about": "“Mutant Hydroxyphenylpyruvate Dioxygenase Polypeptide, Encoding Gene Thereof and Use Therefor” (Beijing Dabeinong Biotechnology Co., Ltd., priority 2019, published 2023)", "key": {"[1]": {"tested_on": "soybean T1 plants", "assay": "Tolerance of transgenic soybean T1 plants to mesotrione", "type": "in vivo", "settings": "mesotrione 210 and 420 g ai/ha, 7 DAT, compared to control vector and wild-type", "excerpt": "The Arabidopsisthaliana T1 plants into which the AsHPPDm-F372A-02 nucleotide sequence was introduced, Arabidopsis thaliana T1 plants into which the AsHPPD-02 nucleotide sequence was introduced and wild-type Arabidopsisthaliana plants (18 days after sowing) were sprayed with topramezone at four different concentrations, i.e., 25 g ai/ha (one-fold field concentration, 1×), 50 g ai/ha (two-fold field concentration, 2×), 100 g ai/ha (four-fold field concentration, 4×) and 0 g ai/ha (water, 0×) to determine the tolerance of Arabidopsisthaliana to the herbicide. The degree of damage caused by the herbicide was measured for each plant according to the proportion of bleached leaf area (the proportion of bleached leaf area=bleached leaf area/total leaf area×100%) 7 days after spraying (7 DAT): the case where there is basically no bleached phenotype is defined as grade 0, the case where the proportion of bleached leaf area is less than 50% is defined as grade 1,the case where the proportion of bleached leaf area is more than 50% is defined as grade 2, and the case where the proportion of bleached leaf area is 100% grade is defined as grade 3.\nIn order to further verify the tolerance effect of HPPD (F372A) on other HPPD inhibitors, the soybean T1 plants into which the AsHPPDm-F372A-02 nucleotide sequence was introduced, soybean T1 plants into which the ZmHPPDm-F372A-02 nucleotide sequence was introduced, soybean T1 plants into which the PfHPPDm-F372A-02 nucleotide sequence was introduced, soybean T1 plants into which the AsHPPDm-F372A-A110 nucleotide sequence was introduced, soybean T1 plants into which the control vector DBN11375NN was introduced in Example 8, and the wild-type soybean plants (V3-V4 at seedling stage) were sprayed as follows to detect the herbicide tolerance of each soybean plants, (1) 140 g ai/ha (2-fold field concentration, 2 ×) isoxaflutole; (2) 280 g ai/ha (4-fold field concentration, 4 ×) isoxaflutole; (3) 210 g ai/ha (2-fold field concentration, 2 ×) mesotrione; (4) 420 g ai/ha (4-fold field concentration, 4 ×) mesotrione. According to the method in point 6 of Example 1, after 7 days of spraying (7 DAT), the damage degree of each plant by the herbicide was statistically analyzed, and the scoring and resistance evaluation were carried out accordingly. […]"}, "[2]": {"tested_on": "Arabidopsis thaliana T1 plants", "assay": "Topramezone tolerance of transgenic Arabidopsis thaliana T1 plants (pesticide damage grade by bleached leaf area, score, resistance evaluation)", "type": "in vivo", "settings": "mutation combination, Table 8", "how_it_was_run": "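Herbicide tolerance was judged per plant on a bleaching scale (grade 0 no bleaching to grade 3 fully bleached) 7 DAT. Topramezone doses were 0, 25, 50 and 100 g ai/ha on 18-day-old T1 and wild-type plants.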"}}, "data": [{"molecule": "AsHPPDm-F372A-A110: Avena sativa HPPD with F372A and deletion of alanine at position 110, SEQ ID NO: 412 (protein, AsHPPDm-F372A-A110 Amino Acid Sequence) MPPTPATATGAAAAAVTPEHAARSFPRVVRVNPRSDRFPVLSFHHVELWCADAASAAGRFSFALGAPLAARSDLSTGNSAHASLLLRSGALAFLFTAPYAPPPQEAATAATASIPSFSADAARTFAAAHGLAVRSVGVRVADAAEAFRVSVAGGARPAFAPADLGHGFGLAEVELYGDVVLRFVSYPDETDLPFLPGFERVSSPGAVDYGLTRFDHVVGNVPEMAPVIDYMKGFLGFHEFAEFTAEDVGTTESGLNSVVLANNSEAVLLPLNEPVHGTKRRSQIQTYLEYHGGPGVQHIALASNDVLRTLREMRARTPMGGFEFMAPPQAKYYEGVRRIAGDVLSEEQIKECQELGVLVDRDDQGVLLQIATKPVGDRPTFFLEMIQRIGCMEKDEVGQEYQKGGCGGFGKGNFSELFKSIEDYEKSLEVKQSVVAQKS", "values": [{"measurement": "tolerance to mesotrione, in words", "setting": "[1]", "value": "different degrees of tolerance"}, {"measurement": "Grade 0 (number of plants)", "setting": "[2]; topramezone 25 g ai/ha", "value": 20}, {"measurement": "Grade 1 (number of plants)", "setting": "[2]; topramezone 25 g ai/ha", "value": 0}, {"measurement": "Grade 2 (number of plants)", "setting": "[2]; topramezone 25 g ai/ha", "value": 0}, {"measurement": "Grade 3 (number of plants)", "setting": "[2]; topramezone 25 g ai/ha", "value": 0}, {"measurement": "Resistance Grade", "setting": "[2]; topramezone 25 g ai/ha", "value": "Highly resistant"}, {"measurement": "score", "setting": "[2]; topramezone 25 g ai/ha", "value": 0}, {"measurement": "Grade 0 (number of plants)", "setting": "[2]; topramezone 100 g ai/ha", "value": 20}, {"measurement": "Grade 1 (number of plants)", "setting": "[2]; topramezone 100 g ai/ha", "value": 0}, {"measurement": "Grade 2 (number of plants)", "setting": "[2]; topramezone 100 g ai/ha", "value": 0}, {"measurement": "Grade 3 (number of plants)", "setting": "[2]; topramezone 100 g ai/ha", "value": 0}, {"measurement": "Resistance Grade", "setting": "[2]; topramezone 100 g ai/ha", "value": "Highly resistant"}, {"measurement": "score", "setting": "[2]; topramezone 100 g ai/ha", "value": 0}]}]}
